Measured values published in publication PMC11218721, “Receptor-Targeted Peptide Conjugates Based on Diphosphines Enable Preparation of ^99mTc and ^188Re Theranostic Agents for Prostate Cancer” (Journal of Nuclear Medicine, 2024).
Where two headings read alike, the source gives them in different places.

How the values were obtained:
[1] = in vivo; parameters: species or system mice; conditions: male, SCID/beige, mouse, total radioactivity
Method: (§1) All animal experiments were ethically reviewed by an Animal Welfare and Ethical Review Board at either King’s College London or Barts Cancer Institute and were performed in accordance with the Animals (Scientific Procedures) Act 1986 U.K. Home Office regulations governing animal experimentation. Subcutaneous prostate cancer DU145-PSMA+ or DU145 xenografts were produced in SCID/beige mice (male, 7–12 wk old). Subcutaneous LNCaP prostate cancer xenografts were produced in athymic nude mice (Crl:NU(NCr)-Foxn1^nu, male, 6–7 wk old). SPECT/CT and biodistribution studies using ^99mTc and ^188Re radiotracers were performed once a tumor had reached an appropriate size (supplemental materials).
Additionally, groups of mice bearing non–PSMA-expressing parental DU145 tumors were also administered these ^99mTc radiotracers. For these groups, tumor uptake of [^99mTc]Tc-DP1-PSMAt decreased to 0.24 ± 0.07 %ID/g, and tumor uptake of [^99mTc]Tc-DP2-PSMAt decreased to 0.18 ± 0.07 %ID/g (Supplemental Fig. 3).

[2] = Ex vivo biodistribution in SCID/beige mice bearing DU145-PSMA+ xenograft tumors; conditions: male, SCID/beige, mouse, in vivo, iv, total radioactivity
Method: as §1
(§2) The biodistributions of [^99mTc]Tc-DP1-PSMAt and [^99mTc]Tc-DP2-PSMAt were assessed in male SCID/beige mice bearing DU145-PSMA+ xenograft tumors (Fig. 3). Each mouse was administered either [^99mTc]Tc-DP1-PSMAt or [^99mTc]Tc-DP2-PSMAt and euthanized at 2 h after injection (n = 5), followed by organ harvesting for ex vivo radioactivity counting.
(§3) FIGURE 3. (A) Biodistribution (2 h after injection) of SCID/beige mice bearing DU145-PSMA+ prostate cancer tumors, administered either ^99mTc or ^188Re radiotracers intravenously. To assess specificity of radiotracer uptake, additional groups of mice were also coadministered radiotracer and PMPA (Supplemental Tables 3 and 4). (B) Whole-body SPECT/CT maximum-intensity projections of SCID/beige mice bearing either DU145-PSMA+ tumors or DU145 tumors, administered either [^99mTc]Tc-DP1-PSMAt or [^99mTc]Tc-DP2-PSMAt, 2 h after injection. To inhibit uptake in DU145-PSMA+ tumors, animals were also coadministered PMPA.
(§4) To assess the specificity of each radiotracer, separate groups of animals, also bearing DU145-PSMA+ tumors, were coadministered either [^99mTc]Tc-DP1-PSMAt and PMPA or [^99mTc]Tc-DP2-PSMAt and PMPA to inhibit PSMA-mediated uptake of radiotracer (n = 5). […] For [^99mTc]Tc-DP1-PSMAt, coadministration decreased uptake to 0.91 ± 0.29 %ID/g in tumors (compared with administration of [^99mTc]Tc-DP1-PSMAt only: mean difference of 17.12 %ID/g, P = 4 × 10^−4). For [^99mTc]Tc-DP2-PSMAt, coadministration decreased uptake to 0.76 ± 0.45 %ID/g in tumors (compared with administration of [^99mTc]Tc-DP2-PSMAt only: mean difference of 28.62 %ID/g, P = 5 × 10^−4).

[3] = Ex vivo biodistribution in athymic nude mice bearing LNCaP xenografts; conditions: male, athymic nude (Crl:NU(NCr)-Foxn1^nu), mouse, total radioactivity
Method: as §1
With a view to developing a molecular [^188Re]Re-labeled agent for PSMA PRRT, we further characterized the biodistribution profiles of [^188Re]Re-DP1-PSMAt and [^188Re]Re-DP2-PSMAt in male athymic nude mice bearing LNCaP xenografts (Fig. 4), which recapitulate clinical metastatic prostate cancer more closely than DU145-PSMA+ xenografts. […] In mice administered [^188Re]Re-DP1-PSMAt, LNCaP tumor uptake measured 7.0 ± 2.3 %ID/g at 2 h after injection and 2.9 ± 0.8 %ID/g at 24 h after injection. For [^188Re]Re-DP2-PSMAt, LNCaP tumor uptake measured 9.8 ± 2.8 %ID/g at 2 h after injection and 7.6 ± 4.4 %ID/g at 24 h after injection.
FIGURE 4. (A–C) Biodistribution of ^188Re in athymic nude mice bearing LNCaP prostate cancer tumors, administered either [^188Re]Re-DP1-PSMAt or [^188Re]Re-DP2-PSMAt at 2 h after injection (A), at 24 h after injection (B), and at 2 h after injection (C) with coadministration of Gelofusine. (D) Additionally, biodistributions of [^99mTc]Tc-DP1-PSMAt and [^99mTc]Tc-DP2-PSMAt at 2 h after injection were measured (Supplemental Tables 5–8). GI = gastrointestinal tract.

[4] = test system: DU145-PSMA+ xenograft tumors; assay: Ex vivo biodistribution in SCID/beige mice bearing DU145-PSMA+ xenograft tumors; conditions: for effect of PMPA coadministration on spleen uptake (in words) / effect of PMPA coadministration on tumor uptake (in words): SCID/beige mice bearing DU145-PSMA+ tumors, 2 h after injection; for radioactivity concentration in DU145-PSMA+ tumors: male, SCID/beige, mouse, in vivo, iv, 2 h
Method: as §1, §2, §3, §4

[5] = test system: parental DU145 cells that do not express PSMA; assay: Radiotracer uptake in parental DU145 cells (non-PSMA-expressing); format: cell-based; conditions: 100 kBq, 1 h, 37°C
Method: (§5) Solutions containing radiotracer (100 kBq in 8–12 μL of phosphate-buffered saline, >95% radiochemical purity) were added to DU145-PSMA+ or LNCaP prostate cancer cells ([22]), and the cells were incubated at 37°C for 1 h. Nonspecific uptake was determined using non–PSMA-expressing cells (DU145, PC3) or by blocking PSMA-expressing cells (DU145-PSMA+, LNCaP) with 2-phosphonomethyl pentanedioic acid (PMPA). After incubation, the cells were washed and samples collected for radioactivity counting. Uptake and localization of ^99mTc radiotracers were measured over time (15, 30, 60, and 120 min) in DU145-PSMA+ or LNCaP cells (supplemental materials).
(§6) To assess the specificity of the new radiotracers for PSMA, [^99mTc]Tc-DP1-PSMAt and [^99mTc]Tc-DP2-PSMAt (100 kBq) were each incubated with DU145-PSMA+ prostate cancer cells (DU145 cells transfected to express PSMA receptor) ([22]). After 1 h of incubation, uptake of each radiotracer was quantified. […] In LNCaP cells, uptake of [^99mTc]Tc-DP1-PSMAt and [^99mTc]Tc-DP2-PSMAt measured 3.7 ± 1.2 %AR and 3.0 ± 0.8 %AR, respectively, whereas uptake of both radiotracers in PC3 cells measured less than 0.3 %AR.
(§7) FIGURE 2. (A) Uptake of radiotracers in PSMA-positive and PSMA-negative prostate cancer cells. (B) Time course uptake and localization of ^99mTc radiotracers in DU145-PSMA cells and LNCaP cells. Data are presented as mean ± SD; n = 3–4 biologic repeats performed in triplicate.

[6] = test system: LNCaP prostate cancer cells, which natively express PSMA; assay: Radiotracer uptake in LNCaP prostate cancer cells; format: cell-based; conditions: 37°C; for uptake in LNCaP cells: 100 kBq radiotracer, 1 h incubation, percentage added radioactivity, mean ± SD, n = 3–4 biologic repeats in triplicate; for uptake in LNCaP cells with PMPA block: blocked with PMPA, 1 h
Method: as §5, §6, §7

[7] = test system: DU145-PSMA+ prostate cancer cells (DU145 cells transfected to express PSMA receptor); assay: Radiotracer uptake in DU145-PSMA+ prostate cancer cells; format: cell-based; conditions: 37°C; for uptake in DU145-PSMA+ cells: 100 kBq radiotracer, 1 h incubation, percentage added radioactivity, mean ± SD, n = 3–4 biologic repeats in triplicate; for uptake in DU145-PSMA+ cells with PMPA block: coincubated with PSMA inhibitor PMPA, 1 h
Method: as §5, §6, §7

[8] = test system: PC3 cells; assay: Radiotracer uptake in PC3 cells (non-PSMA-expressing); format: cell-based; conditions: 100 kBq, 1 h, 37°C; cells do not express PSMA
Method: as §5, §6, §7

[9] = SCID/beige mice bearing DU145-PSMA+ tumors, 2 h after injection, read-out: radioactivity concentration in kidneys
[10] = SCID/beige mice, 2 h after injection, PMPA coadministered, n = 5, read-out: DU145-PSMA+ tumor uptake with coadministration of PMPA
[11] = SCID/beige mice, 2 h after injection, PMPA coadministered, read-out: radioactivity concentration in spleen with PMPA
[12] = radioactivity concentration in DU145-PSMA+ tumors
[13] = radioactivity concentration in spleen
[14] = athymic nude mice bearing LNCaP tumors, 2 h after injection, Gelofusine coadministered, read-out: kidney retention with coadministration of Gelofusine
[15] = athymic nude mice bearing LNCaP tumors, 2 h after injection, read-out: concentration in kidneys at 2 h
[16] = athymic nude mice bearing LNCaP tumors, 24 h after injection, read-out: concentration in kidneys at 24 h

SMILES	tissue uptake at 2 h [1]	tissue uptake at 2 h [2, 9]	tissue uptake at 2 h [2, 10]	tissue uptake at 2 h [2, 11]	tissue uptake at 2 h [2, 12]	tissue uptake at 2 h [2, 13]	tissue uptake at 2 h [3]	tissue uptake at 24 h [3]	tissue uptake at 2 h [3, 14]	tissue uptake at 2 h [3, 15]	tissue uptake at 24 h [3, 16]	effect of PMPA coadministration on spleen uptake (in words) [4]	effect of PMPA coadministration on tumor uptake (in words) [4]	radioactivity concentration in DU145-PSMA+ tumors [4]	uptake in parental DU145 cells [5]	uptake in LNCaP cells [6]	uptake in LNCaP cells with PMPA block [6]	uptake in DU145-PSMA+ cells [7]	uptake in DU145-PSMA+ cells with PMPA block [7]	uptake in PC3 cells (in words) [8]	further results
O=C(O)CC[C@H](NC(=O)N[C@@H](CCCCNC(=O)CCOCCOCCOCCOCCNC(=O)/C(=C(\C(=O)O)P(c1ccccc1)c1ccccc1)P(c1ccccc1)c1ccccc1)C(=O)O)C(=O)O [[^99mTc]Tc-DP1-PSMAt, metal not drawn]	0.24 ± 0.07 %ID/g	116 ± 27.3 %ID/g	0.91 ± 0.29 %ID/g	0.2 ± 0.06 %ID/g	18 ± 3.5 %ID/g	12 ± 5.3 %ID/g	–	–	–	–	–	–	–	–	–	–	–	–	–	–	tissue uptake at 2 h ([2]; SCID/beige mice, 2 h after injection, PMPA coadministered, read-out: radioactivity concentration in kidneys with PMPA): 38 ± 2.9 %ID/g
Cc1ccc(P(/C(C(=O)O)=C(/C(=O)NCCOCCOCCOCCOCCC(=O)NCCCC[C@H](NC(=O)N[C@@H](CCC(=O)O)C(=O)O)C(=O)O)P(c2ccc(C)cc2)c2ccc(C)cc2)c2ccc(C)cc2)cc1 [[^99mTc]Tc-DP2-PSMAt, metal not drawn]	0.18 ± 0.07 %ID/g	183 ± 23.8 %ID/g	0.76 ± 0.45 %ID/g	0.3 ± 0.18 %ID/g	29.4 ± 6.3 %ID/g	7.7 ± 3.4 %ID/g	–	–	–	–	–	–	–	–	–	–	–	–	–	–	–
O=C(O)CC[C@H](NC(=O)N[C@@H](CCCCNC(=O)CCOCCOCCOCCOCCNC(=O)/C(=C(\C(=O)O)P(c1ccccc1)c1ccccc1)P(c1ccccc1)c1ccccc1)C(=O)O)C(=O)O [[^188Re]Re-DP1-PSMAt, metal not drawn]	–	–	–	–	–	–	7 ± 2.3 %ID/g	2.9 ± 0.8 %ID/g	109 ± 13.3 %ID/g	137 ± 34.6 %ID/g	29.4 ± 4.9 %ID/g	–	–	–	–	–	–	–	–	–	–
O=C(O)CC[C@H](NC(=O)N[C@@H](CCCCNC(=O)CCOCCOCCOCCOCCNC(=O)/C(=C(\C(=O)O)P(c1ccccc1)c1ccccc1)P(c1ccccc1)c1ccccc1)C(=O)O)C(=O)O [[^188Re]Re-DP1-PSMAt] [metal not drawn]	–	–	–	–	–	–	–	–	–	–	–	significantly inhibited uptake	significantly inhibited uptake	27.7 ± 6.4 %ID/g	negligible uptake	2.8 ± 1.6 %AR	could be blocked with PMPA	13.5 ± 2.7 %AR	could be blocked with PMPA	negligible uptake	–
Cc1ccc(P(/C(C(=O)O)=C(/C(=O)NCCOCCOCCOCCOCCC(=O)NCCCC[C@H](NC(=O)N[C@@H](CCC(=O)O)C(=O)O)C(=O)O)P(c2ccc(C)cc2)c2ccc(C)cc2)c2ccc(C)cc2)cc1 [[^188Re]Re-DP2-PSMAt, metal not drawn]	–	–	–	–	–	–	9.8 ± 2.8 %ID/g	7.6 ± 4.4 %ID/g	128 ± 17.7 %ID/g	163 ± 31.8 %ID/g	37 ± 12.2 %ID/g	–	–	–	–	–	–	–	–	–	–
Cc1ccc(P(/C(C(=O)O)=C(/C(=O)NCCOCCOCCOCCOCCC(=O)NCCCC[C@H](NC(=O)N[C@@H](CCC(=O)O)C(=O)O)C(=O)O)P(c2ccc(C)cc2)c2ccc(C)cc2)c2ccc(C)cc2)cc1 [[^188Re]Re-DP2-PSMAt] [metal not drawn]	–	–	–	–	–	–	–	–	–	–	–	significantly inhibited uptake	significantly inhibited uptake	19.2 ± 8.6 %ID/g	negligible uptake	2.6 ± 1.6 %AR	could be blocked with PMPA	8.3 ±0.7 %AR	could be blocked with PMPA	negligible uptake	–
